Measured values reported in US20050025764A1 (published 2005).
Changes are numbered by the printed parent chain.

Columns and labels:
human CD20 [1] = molecular target: T1, human CD20 (human, UniProt P11836 1-297); test: fixed Ramos cell ELISA, Fab 1 h, anti-His6 peroxidase, OD 450 (overall binding)
T1 sequence (looked up): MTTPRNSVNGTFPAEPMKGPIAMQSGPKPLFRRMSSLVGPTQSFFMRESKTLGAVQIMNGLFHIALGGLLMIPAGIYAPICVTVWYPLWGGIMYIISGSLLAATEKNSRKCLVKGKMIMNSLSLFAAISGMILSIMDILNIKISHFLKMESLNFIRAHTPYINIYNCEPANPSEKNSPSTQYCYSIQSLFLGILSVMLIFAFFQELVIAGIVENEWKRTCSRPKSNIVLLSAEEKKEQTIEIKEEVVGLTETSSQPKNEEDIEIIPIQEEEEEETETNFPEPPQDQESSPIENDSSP
Procedure: (§1) Ramos cells (ATCC) were grown in RPMI 1640 containing 10% heat inactivated Fetal Bovine Serum. Fifty microliters of Ramos cells (2-4×10⁶/ml), were pipetted into each well of a 96 well Poly-D-Lysine coated plate (BIOCAT Becton Dickinson Labware) and incubated at 37620 C., 5% CO₂ for 18 hours. Media was gently aspirated and […] of aqueous buffered zinc formalin (Anatech, Ltd.) was added to each well for 15 minutes at room temperature. Z-fix was removed and the plate was washed with phosphate-buffered saline (PBS) containing 0.05% Tween 20. The plate was blocked for 1 hour with 1% bovine serum albumin (BSA) in PBS. Dilutions of Fab or IgG were incubated with the fixed and blocked Ramos cells for 1 hour at room temperature. The plate was washed 3× with PBS 0.05% Tween […] of anti-His6 Peroxidase Mouse Monoclonal Antibody (Roche Diagnostics Corporation) at a 1:500 dilution were added to the wells and incubated 1 hour at room temperature. The plate was washed as above and developed with tetramethyl benzidine, and the reaction was stopped with 5N H₂SO₄. The plate absorbance was read at OD 450 nm. Dilutions of Fab and conjugate were in 1% BSA/PBS.

human CD20 (human) = human CD20 (human) (UniProt P11836); test: fixed Ramos cell ELISA, IgG, on-rate format: 5 min IgG step and 5 min second antibody step, goat anti-human IgG-HRP, OD 450
human CD20 [2] = molecular target: T1, human CD20; test: fixed Ramos cell ELISA, off-rate format: overnight incubation in PBS/BSA after the Fab step, anti-His6 peroxidase, OD 450
Procedure: as §1
(§2) IgG assays were performed similarly except IgG bound was detected with goat anti-human IgG-HRP. To compare antibody off-rate, after incubation with Fab or IgG the plates were incubated over night in PBS/BSA, before proceeding with the second antibody step. To compare antibody on-rate, incubation steps for Fab/IgG binding and with the second antibody were both of 5 minutes duration.

human CD20 [3] = molecular target: T1, human CD20; test: fixed Ramos cell ELISA, OD 450 nm
human CD20 [4] = molecular target: T1, human CD20; test: IgG binding to SKW 6.4 B lymphoma cells, free antibody by ELISA, KinExA equilibrium software
Procedure: (§3) SKW 6.4 cells were grown in DMEM media supplemented with 10% FCS and harvested at 5-10×10⁵ cells per ml. […] For human peripheral blood B cells, fresh CD19 positively sorted B cells were obtained from Allcells. These cells were washed two times in PBS with 1% BSA and resuspended at a concentration of 8×10⁷/ml.
(§4) Twelve, 3 fold serial dilutions were then made and 100ul of each dilution placed in a 96 well plate. To each dilution […] of antibody at 100 ng/ml was added and the plate incubated at 37620 C., 5% CO₂ for 4 hours. Each sample was then filtered with a 96 well 1 micron filter (Millipore) to remove the cells and bound antibody. Free antibody in solution was then quantified using an ELISA. Briefly, free IgG was captured in a 96 well plate coated with 1 mg/ml of anti-human kappa antibody (Southern Biotechnology) and detected using an anti-human Fc antibody coupled with HRP (Southern Biotechnology). The plate was developed using Fast TMB substrate (Pierce) and read at 450 nm.
(§5) The Kd of the antibody was then determined using the KinExA equilibrium software for an unknown antigen concentration. The OD450 value for each serial dilution was fitted with an estimated antigen concentration and the actual antibody concentration. The Kd and actual antigen concentration were then calculated.

human CD20 [5] = molecular target: T1, human CD20; test: IgG binding to SKW 6.4 cells over time, free antibody by ELISA, direct kinetics KinExA software
Procedure: SKW 6.4 cells were grown in DMEM media supplemented with 10% FCS and harvested at 5-10×10⁵ cells per ml. […] An equal volume of antibody at 100 ng/ml in PBS with 1% BSA at 37620 C. was then added to the cells and the timing for the experiment started. At time intervals from 60 seconds to 10800 seconds a sample of the antibody cell solution was sampled and filtered to remove cells and bound antibody. Free antibody remaining at each time point was then quantified using the ELISA described above.
The kinetics for the antibody cell reaction was calculated using the direct kinetics KinExA software. The OD450 value for each time point was fitted using the previously calculated Kd and antigen concentration and the Kon and Koff for the reaction calculated.

human CD20 [6] = molecular target: T1, human CD20; test: IgG binding to SKW 6.4 cells, KinExA equilibrium software
Procedure: as §3, §4, §5

human CD20 [7] = molecular target: T1, human CD20; test: cell-based or functional assay
human CD20 [8] = molecular target: T1, human CD20; test: IgG binding to primary human peripheral blood B cells (CD19 sorted), KinExA equilibrium software
Procedure: as §3, §4, §5

human CD20 [9] = molecular target: T1, human CD20; test: fixed Ramos cell ELISA, IgG, on-rate format: 5 min IgG step and 5 min second antibody step, goat anti-human IgG-HRP, OD 450
Procedure: as §1, §2

human CD20 [10] = molecular target: T1, human CD20; test: fixed Ramos cell ELISA, on-rate format: 5 min Fab step and 5 min second antibody step, anti-His6 peroxidase, OD 450
Procedure: as §1
IgG assays were performed similarly except IgG bound was detected with goat anti-human IgG-HRP. […]

C2B8 Fab
EC50 (read off the curve) (human CD20 [1]): 0.06 µg/mL

commercial RITUXAN (Oncology Supply Co.) (antibody)
EC50 (read off the curve) (human CD20 (human)): 1 µg/mL

B1: AME 4H5 Fab (Fab, V domains shown)
VH: QVQLVQSGAEVKKPGASVKVSCKASGYTFTSYNMHWVRQAPGQGLEWMGAIYPGNGDTSYNQKFKWRVTMTRDTSTSTVYMELSSLRSEDTAVYYCARSTYYGGDWQFDQWGKGTTVTVSS
VL: DIQMTQSPSSLSASVGDRVTITCRASSSVHYIHWYQQKPGKVPKLLIYATSNLASGVPSRFSGSGSGTDFTLTISSLQPEDVATYYCQQWTFNPPTFGGGTKVEIK
notes: Fab, His-tagged (anti-His6 detection); constant regions and tag not given
EC50 (read off the curve) (human CD20 [2]): ~0.1 µg/mL | EC50 (read off the curve) (human CD20 [1]): ~0.06 µg/mL

B2: AME 4H5 IgG (antibody, V domains shown)
VH: B1 VH
VL: B1 VL
notes: Full IgG
maximum OD relative to the C2B8 antibody (human CD20 [3]): ~1.5 times

B3: AME 5 IgG (antibody, V domains shown)
VH: B1 VH with Q110E
VL: B1 VL with N52G, Q89T
notes: Full IgG
Kd (human CD20 [4]): 0.145 nM | koff (human CD20 [5]): 7.9e-05 s⁻¹ | kon (human CD20 [5]): 580000 M⁻¹ s⁻¹ | fold enhancement of Kd compared to the C2B8 antibody (human CD20 [6]): 10 fold

B4: AME 33 IgG (antibody, V domains shown)
VH: EVQLVQSGAEVKKPGESLKISCKGSGRTFTSYNMHWVRQMPGKGLEWMGAIYPLTGDTSYNQKSKLQVTISADKSISTAYLQWSSLKASDTAMYYCARSTYVGGDWQFDVWGKGTTVTVSS
VL: EIVLTQSPGTLSLSPGERATLSCRASSSVPYIHWYQQKPGQAPRLLIYATSALASGIPDRFSGSGSGTDFTLTISRLEPEDFAVYYCQQWLSNPPTFGQGTKLEIKR
notes: Full IgG; also called AME 33 antibody
ADCC, Estimated EC50s, ug/ml (Wil-2 cells as target) (human CD20 [7]): 0.0063 µg/mL | Kd (human CD20 [4]): 0.097 nM | Kd (human CD20 [8]): 0.113 nM | koff (human CD20 [5]): 7.7e-05 s⁻¹ | kon (human CD20 [5]): 780000 M⁻¹ s⁻¹ | fold enhancement of Kd compared to the C2B8 antibody (human CD20 [6]): 10 fold | maximum OD relative to the C2B8 antibody (human CD20 [3]): ~1.5 times

B5: AME 1D10 IgG (antibody, V domains shown)
VH: B4 VH with R27Y, T55N, S64F, Q107T
VL: EIVLTQSPGTLSLSPGERATLSCRASSSVPYIHWYQQKPGQAPRLLIYATSNLASGIPDRFSGSGSGTDFTLTISRLEPEDFAVYYCQQWLSNPPTFGQGTKLEIK
notes: Full IgG
EC50 (read off the curve) (human CD20 [9]): ~0.4 µg/mL | maximum OD relative to the C2B8 antibody (human CD20 [3]): ~1.5 times

B6: AME 1D10 Fab (Fab, V domains shown)
VH: B4 VH with R27Y, T55N, S64F, Q107T
VL: B5 VL
notes: as for B1
EC50 (read off the curve) (human CD20 [2]): ~0.2 µg/mL | EC50 (read off the curve) (human CD20 [1]): ~0.06 µg/mL

B7: AME 33 Fab (Fab, V domains shown)
VH: B4 VH
VL: B5 VL with N52A
notes: Fab
EC50 (read off the curve) (human CD20 [1]): ~0.08 µg/mL | EC50 (read off the curve) (human CD20 [10]): ~0.5 µg/mL

B8: AME 18 IgG (antibody, V domains shown)
VH: B4 VH with S64F, T100Y, Q107T
VL: B5 VL with N52A
notes: Full IgG
maximum OD relative to the C2B8 antibody (human CD20 [3]): ~1.5 times

B9: AME 2C2 IgG (antibody, V domains shown)
VH: B4 VH with R27Y, T55N, S64F, Q107T
VL: B5 VL with P30S
notes: constant regions not spelled out
EC50 (read off the curve) (human CD20 [9]): ~0.5 µg/mL

B10: AME 15 Fab (Fab, V domains shown)
VH: B4 VH with R27Y, T55N, Q62R, Q107T
VL: B5 VL
notes: as for B1
EC50 (read off the curve) (human CD20 [2]): ~0.2 µg/mL | EC50 (read off the curve) (human CD20 [1]): ~0.05 µg/mL

B11: 21E1 Hum (Fab, V domains shown)
VH: B4 VH with R27Y, L54G, T55N, S64F, L66G, V102Y, Q107S
VL: B5 VL with P30S
notes: the panels are titled Fab; also called AME 21E1 Hum; AME 21E1 Hum Fab
binding result (human CD20 [1]): no binding (tested: about 7 µg/ml)

B12: AME 15 IgG (antibody, V domains shown)
VH: B4 VH with R27Y, T55N, Q62R, Q107T
VL: B5 VL
notes: Full IgG
EC50 (read off the curve) (human CD20 [9]): ~0.3 µg/mL | maximum OD relative to the C2B8 antibody (human CD20 [3]): ~1.5 times

B13: AME 18 Fab (Fab, V domains shown)
VH: B4 VH with S64F, T100Y, Q107T
VL: B5 VL with N52A
notes: as for B1
EC50 (read off the curve) (human CD20 [1]): ~0.06 µg/mL | EC50 (read off the curve) (human CD20 [10]): ~0.3 µg/mL
